Test results reported in patent publication US20250361264A1, “PROTEIN MODIFYING REAGENT” (CANON KABUSHIKI KAISHA, priority 2023, published 2025).

Biological target: T1, fibroin sheet (Bombyx mori, UniProt P05790)
T1 construct: purchased Sigma-Aldrich
Assay: Color intensity of modified fibroin sheet after glucose/HRP/4-aminoantipyrine chromogenic reaction
Type: biochemical
Details: fibroin sheet adsorbed from 0.3 mg/mL solution, 10 mM glucose, 1000 U/mL HRP, 5 minutes, ImageJ, average of five sheets
Procedure: After methanol was added to the collected sheet, methanol was removed and dried overnight. The measurement of the weight of the fibroin sheet cut into 20 mm×40 mm size confirmed that it was 1.25 μg/mm^2 fibroin sheet. Fibroin sheets of 5 mm×5 mm size were cut and added to an aqueous solution of 0.3 mg/mL Compound 1 (0.2 mL) and allowed to stand for 10 minutes. Fibroin sheets were immersed in PBS buffer (1 mL, pH7.4) containing 0.05 wt % Tween20 for 15 minutes×2 and in PBS (1 mL, pH7.4) for 1 minute. The modified fibroin sheet was obtained by drying at room temperature.
A fibroin sheet adsorbed with Compound 6 was prepared in the same manner as Manufacturing Example 2 except that 0.3 mg/mL Compound 6 aqueous solution was used instead of the aqueous solution of Compound 1.
1.5 μL of phosphate buffered saline (pH7.4) containing 10 mM glucose, 1000 U/mL HRP, 3.7 mM 4-aminoantipyrine, 6.4 mM sodium 3-[ethyl(m-tolyl) amino]-2 hydroxy-1 propanesulfonate was added dropwise to a fibroin sheet modified with Compound 6 obtained in Manufacturing Example 12 and allowed to stand in a wet box for 5 minutes. […] After drying the sheet, the sheet was read by a scanner to obtain image data. […] Five sheets were prepared and subjected to the same evaluation, and the average value of color intensity (Color Intensity, hereinafter CI value) was calculated. The calculated CI value was 54.5.

Row | Molecule | CI value (average color intensity)
1 | Compound 6: Thioflavin T acid bound to glucose oxidase (GOx); 5.6 molecules per GOx molecule (conjugate, UniProt P13006 17-605, looked up, Thioflavin T acid conjugated, 5.6 per GOx, 5.6 molecules per GOx molecule) Glucose oxidase: LPHYIRSNGIEASLLTDPKDVSGRTVDYIIAGGGLTGLTTAARLTENPNISVLVIESGSYESDRGPIIEDLNAYGDIFGSSVDHAYETVELATNNQTALIRSGNGLGGSTLVNGGTWTRPHKAQVDSWETVFGNEGWNWDNVAAYSLQAERARAPNAKQIAAGHYFNASCHGVNGTVHAGPRDTGDDYSPIVKALMSAVEDRGVPTKKDFGCGDPHGVSMFPNTLHEDQVRSDAAREWLLPNYQRPNLQVLTGQYVGKVLLSQNGTTPRAVGVEFGTHKGNTHNVYAKHEVLLAAGSAVSPTILEYSGIGMKSILEPLGIDTVVDLPVGLNLQDQTTATVRSRITSAGAGQGQAAWFATFNETFGDYSEKAHELLNTKLEQWAEEAVARGGFHNTTALLIQYENYRDWIVNHNVAYSELFLDTAGVASFDVWDLLPFTRGYVHILDKDPYLHHFAYDPQYFLNELDLLGQAAATQLARNISNSGAMQTYFAGETIPGDNLAYDADLSAWTEYIPYHFRPNYHGVGTCSMMPKEMGGVVDNAARVYGVQGLRVIDGSIPPTQMSSHVMTVFYAMALKISDAILEDYASMQ | 54.5
2 | GOx: glucose oxidase (manufactured by Sigma-Aldrich, G2133), unmodified comparison (protein, UniProt P13006 17-605, looked up) Glucose oxidase: LPHYIRSNGIEASLLTDPKDVSGRTVDYIIAGGGLTGLTTAARLTENPNISVLVIESGSYESDRGPIIEDLNAYGDIFGSSVDHAYETVELATNNQTALIRSGNGLGGSTLVNGGTWTRPHKAQVDSWETVFGNEGWNWDNVAAYSLQAERARAPNAKQIAAGHYFNASCHGVNGTVHAGPRDTGDDYSPIVKALMSAVEDRGVPTKKDFGCGDPHGVSMFPNTLHEDQVRSDAAREWLLPNYQRPNLQVLTGQYVGKVLLSQNGTTPRAVGVEFGTHKGNTHNVYAKHEVLLAAGSAVSPTILEYSGIGMKSILEPLGIDTVVDLPVGLNLQDQTTATVRSRITSAGAGQGQAAWFATFNETFGDYSEKAHELLNTKLEQWAEEAVARGGFHNTTALLIQYENYRDWIVNHNVAYSELFLDTAGVASFDVWDLLPFTRGYVHILDKDPYLHHFAYDPQYFLNELDLLGQAAATQLARNISNSGAMQTYFAGETIPGDNLAYDADLSAWTEYIPYHFRPNYHGVGTCSMMPKEMGGVVDNAARVYGVQGLRVIDGSIPPTQMSSHVMTVFYAMALKISDAILEDYASMQ | 30.8
